Assay results reported in patent US20160158369A1, “PHARMACEUTICAL COMPOSITION FOR RESPIRATORY ADMINISTRATION” (SEIKAGAKU CORPORATION, priority 2013, published 2016).

Legend:
[1] = Blood kinetics (plasma drug concentration) in normal rat after intratracheal administration; format: in vivo
Description: The resultant was extracted with chloroform and methanol, and the extracted solution was measured by LC-MS/MS.

in vivo = experiment: in vivo
Description: As a test substance, the compound is was used, and it was used after being dissolved in phosphate buffered saline such that the pharmaceutical concentration is 3 mg/mL.
For the test, a BN/CrlCrlj rat (Charles River Laboratories International, Inc., 5-week old) was used. It was placed on its back and fixed under general anesthesia, and by using a sonde for intratracheal administration (MicroSprayer (registered trademark) Aerosolizer Model IA-1B, manufactured by Penn-Century), intratracheal administration was performed with volume of 100 μL. As general anesthesia, inhalation of isoflurane (concentration of 3.0% and flow rate of 2.0 L/min) was employed.
Weight of the pulmonary tissue was measured and, after being added with an aqueous solution of ammonium formic acid (pH 6.0):methanol (3:2, v/v) at ratio of 40× (1 g: 40 mL), it was homogenated for about 1 minute under ice cooling by using a homogenizer. […] Meanwhile, the measurement was made with n=3 for each evaluation time point.
Each parameter of pharmacokinetics was calculated from a change in average content in pulmonary tissue. If there was an animal showing the measurement value of less than the lower limit of quantification, the average content in pulmonary tissue was calculated by substituting the value of 0 (zero) for it. The time t (hr) for calculating AUC0-t was the final time point at which the quantification can be made. Meanwhile, for calculation of the parameters of pharmacokinetics, non-compartmental analysis model analysis by WinNonlin Professional (registered trademark) Ver 5.2.1 was used. […] The results are shown in FIG. 2 and the following table.
The compounds vb obtained from Example 5 was evaluated in the same manner as the method described in (Test example B1) in terms of the persistent property of the pharmaceutical in a pulmonary tissue of a normal rat.
As a comparative control group, budesonide alone in the same amount as the compound vb, and a mixture of budesonide and chondroitin sulfate in the same amount as the compound vb were administered. Meanwhile, in the present measurement system, the lower detection limit of budesonide was 1 ng/mL. Meanwhile, the evaluation time points include three points, i.e., Hour 4, 24, and 72.

[2] = system: rat antigen-induced asthma model; experiment: Rat antigen-induced asthma model, eosinophils in bronchoalveolar lavage fluid; format: in vivo; details: for number of eosinophils in bronchoalveolar lavage fluid, % of control: average value
Description: Intraperitoneal administration of 1 mL of aluminum hydroxide gel containing ovalbumin (1 mg/mL) was performed 3 times with one day interval. 14 Days after performing the first sensitization, intraperitoneal administration of 1 mL of aluminum hydroxide gel containing ovalbumin (1 mg/mL) was performed again followed by the second sensitization. 7 Days after the second sensitization, inhalation exposure of physiological saline (10 mg/mL) containing ovalbumin was performed by using a nebulizer five times with one day interval in order to induce asthma.
The 0.6 mg/mL prednisolone suspension was orally administered by using a sonde for oral administration under no anesthesia to have prednisolone amount of 3 mg/kg.
Meanwhile, the test was performed with n=6 to 12.
24 Hours after the fifth exposure, phosphate buffered saline (2 mL) containing 0.1% bovine serum albumin heated to 37° C. was injected to a bronchus of a rat under pentobarbital anesthesia and collected thereafter. This procedure was repeated 5 times to have bronchoalveolar lavage fluid. The bronchoalveolar lavage fluid was centrifuged for 3 minutes at 200×g and room temperature. The supernatant was discarded, and the pellet was re-suspended in phosphate buffered saline (500 μL) containing 0.1% bovine serum albumin.
Subsequently, a smear sample of the suspension was prepared followed by Diff-Quik staining. According to cell fractionation, ratio of eosinophil in white blood cells was calculated. According to integration with the number of white blood cells in bronchoalveolar lavage fluid, the number of […] in bronchoalveolar lavage fluid was calculated. Meanwhile, the number of white blood cells in bronchoalveolar lavage fluid was measured by using a blood cell counting chamber. The results are shown in FIG. 4 and the following table.
Dose responsiveness of the compound va in an OVA sensitized rat model was determined in the same manner as (Test example B2).
There were three doses for determination, i.e., 0.35 mg/kg, 3.5 mg/kg, and 35 mg/kg, such that the budesonide amount for administration is 0.1 mg/kg, 1 mg/kg, or 10 mg/kg.

OVA sensitized rat model = experiment: Dose responsiveness of budesonide alone in OVA sensitized rat model; format: in vivo; details: doses 0.01, 0.1, 1, 10 mg/kg to bronchus 1 hour before 4th and 5th OVA exposure
Description: Dose responsiveness of budesonide alone in an OVA sensitized rat model was determined.
There were four doses for determination, i.e., 0.01 mg/kg, 0.1 mg/kg, 1 mg/kg, and 10 mg/kg.
As a test system, a male BN rat was used. For OVA sensitization, 1 mL of Alum containing 1 mg/mL OVA was administered intraperitoneally. After the sensitization, physiological saline containing 10 mg/mL OVA was used for inhalation exposure, 5 times every 24 hours, by using a nebulizer. The test substance was administered to a bronchus 1 hour before the 4th and 5th inhalation exposure of OVA.
On Hour 24 after the final exposure, 2 mL of PBS containing 0.1% BSA (heated to 37° C.) was administered under pentobarbital anesthesia to a bronchus followed by recovery. This procedure was repeated 5 times to give bronchoalveolar lavage fluid (BALF).
BALF was centrifuged for 3 minutes at 200×g and room temperature. The supernatant was discarded, and the pellet was re-suspended in PBS (500 μL, heated to 37° C.) containing 0.1% BSA. Subsequently, a smear sample of the BALF was prepared followed by Diff-Quik staining. According to cell fractionation, ratio of eosinophil in white blood cells was calculated. According to integration with the number of white blood cells in BALF, the number of […] in BALF was calculated (number of white blood cells was measured by using blood cell counting chamber).

[3] = Drug dissociation test: polysaccharide derivative in buffer solution, 36°C, 1 week, HPLC; format: physicochemical
Description: In the examples relating to drug dissociation test, the drug dissociation ratio was evaluated as described below.
Sodium dihydrogen phosphate dihydrate (780 mg (5.0 mmol)) was dissolved in 500 mL of distilled water to give a liquid A. Separately, disodium hydrogen phosphate dodecahydrate (1.79 g (5.0 mmol)) was dissolved in 500 mL of distilled water to give a liquid B. By mixing the liquid A and liquid B at ratio of 2:3, a phosphate buffer solution of pH 7.5 was prepared.
0.62 g (10 mmol) of boric acid and 0.75 g (10 mmol) of potassium chloride were weighed and dissolved in 500 mL of distilled water to give a liquid C. Separately, by diluting 0.1 N sodium hydroxide solution with distilled water (×10 dilution), a liquid D was prepared.
50 mL of the liquid C and 7 mL of the liquid D were added to a 100 mL mess flask, and according to dilution to 100 mL with distilled water, a borate buffer solution of pH 8.0 was prepared. Furthermore, 50 mL of the liquid C and 40 mL of the liquid D were added to a 100 mL mess flask, and according to mess-up to 100 mL with distilled water, a borate buffer solution of pH 9.0 was prepared.
Each polysaccharide derivative obtained from above was dissolved in a buffer solution at each pH so as to have a concentration of 5 mg/10 mL, and heated for 1 week in an incubator at 36° C. Then, the drug dissociation ratio during the incubation was evaluated every 24 hours by liquid chromatography (HPLC).
The evaluation was performed by measuring the ratio between the drug amount remained in a polysaccharide derivative and the dissociated drug amount according to use of a size exclusion chromatography column (manufactured by TOSOH, TSKgel α-6000, 7.8 mmI.D.×30 cm).
Detailed conditions for the liquid chromatography are as follows.
Analysis time: 40 minutes
Solution for elution: acetonitrile (for HPLC):physiological saline=1:2
Detector: UV detector (240 nm)

[4] = BN/CrlCrlj, rat, plasma, inhaled or intranasal, 0.3 mg/animal
[5] = single intratracheal administration 100 μL, 7 days before the evaluation time point

For `C[C@H]1C[C@H]2[C@@H]3CCC4=CC(=O)C=C[C@]4(C)[C@@]3(F)[C@@H](O)C[C@]2(C)[C@@]1(O)C(=O)CO` [Betamethasone, betamethasone], the Cmax [1, 4] was 1010 ng/mL, the Tmax [1, 4] was 0.5 h and the “course of plasma concentration (in words)” value ([1]; betamethasone in plasma, normal rat, intratracheal, lower limit of quantification 5 ng/mL) was “after 24 hours, it was lower than the lower limit for quantification”. The Tmax (in vivo; BN/CrlCrlj, rat, in vivo, inhaled or intranasal) was 4 h, the “time after administration until which exposure of betamethasone was observed in pulmonary tissue” value (in vivo; normal rat, intratracheal, final evaluation time point […], lower limit for quantification 10 ng/g) was 48 h and the “number of eosinophils in bronchoalveolar lavage fluid, % of control” value (shortened to “number of eosinophils … % of control”) [2, 5] was 90.0 % of control.
For `CCCC1OC2CC3C4CCC5=CC(=O)C=CC5(C)C4C(O)CC3(C)C2(C(=O)COC(=O)CCCCCCCCCCCN)O1` (centres unmarked) [Compound xviiib, Budesonide 12-Aminododecylate], the solubility in water (Solubility in water) was “good solubility in water”.
With `C[C@]12C=CC(=O)C=C1CC[C@@H]1[C@@H]2[C@@H](O)C[C@@]2(C)[C@H]1CC[C@]2(O)C(=O)CO` [Prednisolone, prednisolone, reference compound] the “number of eosinophils … % of control” value ([2]; oral 3 mg/kg, five times, 30 minutes before inducing asthma, positive control) was 28.0 % of control.
With `CCCC1O[C@@H]2C[C@H]3[C@@H]4CCC5=CC(=O)C=C[C@]5(C)[C@H]4[C@@H](O)C[C@]3(C)[C@]2(C(=O)CO)O1` (some centres unmarked) [budesonide] the “administration amount at which eosinophil inhibitory activity was shown” value (OVA sensitized rat model) was ≥ 0.1 mg/kg, the concentration at 4 h (in vivo; BN/CrlCrlj, rat, in vivo) was 471 ng/g and the concentration at 24 h (in vivo; BN/CrlCrlj, rat, in vivo) was 0.3 ng/g. It also gave a concentration at 72 h (in vivo; BN/CrlCrlj, rat, in vivo) of 0.1 ng/g.
In the case of “Chondroitin Sulfate Introduced with 21-β-Alanyl-Betamethasone [Compound ia]”, the “eosinophil infiltration compared to phosphate buffered saline group (in words)” value ([2]; Day 7 after single intratracheal administration) was “significantly suppressed eosinophil infiltration” and the “number of eosinophils … % of control” value [2, 5] was 56.8 % of control.
In the case of “Hyaluronic Acid Introduced with 21-β-Alanyl-Budesonide (880 kDa) [Compound via]”, the “Dissociation ratio (%/day)” value ([3]; pH 7.4, 36°C) was 4.9 %/day, the drug dissociation ratio ([3]; pH 7.4, 36°C, day 0) was 2.0% and the drug dissociation ratio ([3]; pH 7.4, 36°C, day 1) was 9.6%. For the same compound, the drug dissociation ratio ([3]; pH 7.4, 36°C, day 2) was 16.8%, the drug dissociation ratio ([3]; pH 7.4, 36°C, day 3) was 18.3% and the drug dissociation ratio ([3]; pH 7.4, 36°C, day 4) was 21.7%. The drug dissociation ratio ([3]; pH 7.4, 36°C, day 5) was 23.9%, the drug dissociation ratio ([3]; pH 7.4, 36°C, day 6) was 30.9% and the drug dissociation ratio ([3]; pH 7.4, 36°C, day 7) was 34.3%. The “Dissociation ratio (%/day)” value ([3]; pH 8.0, 36°C) was 8.2 %/day, the drug dissociation ratio ([3]; pH 8.0, 36°C, day 0) was 0.9% and the drug dissociation ratio ([3]; pH 8.0, 36°C, day 1) was 15.0%. It also gave a drug dissociation ratio ([3]; pH 8.0, 36°C, day 2) of 20.4%, a drug dissociation ratio ([3]; pH 8.0, 36°C, day 3) of 26.4% and a drug dissociation ratio ([3]; pH 8.0, 36°C, day 4) of 39.9%. For the same compound, the drug dissociation ratio ([3]; pH 8.0, 36°C, day 5) was 46.2%, the drug dissociation ratio ([3]; pH 8.0, 36°C, day 6) was 52.6% and the drug dissociation ratio ([3]; pH 8.0, 36°C, day 7) was 57.1%.
With “Hyaluronic Acid Introduced with Proxyphylline [xxiib]” the “Dissociation ratio (%/day)” value ([3]; pH 7.4, 36°C) was 0.8 %/day, the drug dissociation ratio ([3]; pH 7.4, 36°C, day 0) was 0.0% and the drug dissociation ratio ([3]; pH 7.4, 36°C, day 1) was 0.7%. The drug dissociation ratio ([3]; pH 7.4, 36°C, day 2) was 1.3%, the drug dissociation ratio ([3]; pH 7.4, 36°C, day 3) was 2.2% and the drug dissociation ratio ([3]; pH 7.4, 36°C, day 4) was 2.8%. It also gave a drug dissociation ratio ([3]; pH 7.4, 36°C, day 5) of 3.6%, a drug dissociation ratio ([3]; pH 7.4, 36°C, day 6) of 4.4% and a drug dissociation ratio ([3]; pH 7.4, 36°C, day 7) of 5.3%. The “Dissociation ratio (%/day)” value ([3]; pH 8.0, 36°C) was 2.0 %/day, the drug dissociation ratio ([3]; pH 8.0, 36°C, day 0) was 0.0% and the drug dissociation ratio ([3]; pH 8.0, 36°C, day 1) was 2.1%. For the same compound, the drug dissociation ratio ([3]; pH 8.0, 36°C, day 2) was 4.6%, the drug dissociation ratio ([3]; pH 8.0, 36°C, day 3) was 7.0% and the drug dissociation ratio ([3]; pH 8.0, 36°C, day 4) was 8.8%. It also gave a drug dissociation ratio ([3]; pH 8.0, 36°C, day 5) of 10.4%, a drug dissociation ratio ([3]; pH 8.0, 36°C, day 6) of 12.6% and a drug dissociation ratio ([3]; pH 8.0, 36°C, day 7) of 14.3%.
